The target of data set [1] is human NEMO mutant A323P, FLAG-tagged (human) (UniProt Q9Y6K9). The experiment in a line: cell-based or functional assay.
The target in a further data set is K63 polyubiquitin chains. Put plainly: cell-based or functional assay.
Data set [2] concerns the molecule itself. Put plainly: gel filtration on Superdex 75, same elution profile as the wild-type CC2-LZ protein. A general note: SEC sorts molecules by how far they enter the pores of the column.
In data set [3] the target is T1, CC2-LZ domain of NEMO (species and construct not stated for this assay) (Mus musculus (Mouse), UniProt O88522 251-337).
T1 construct: not shown: N-terminal histidine tag and vector residues from pET28
The experiment in a line: fluorescence polarisation, N-terminally Fluorescein- or Cy5-labelled peptide, pH 7, ambient temperature, 20 mM Tris-Acetate-MES, 200 mM KCl, 0.5% Tween 20. The method, then: These measurements are carried out at pH 7 and at ambient temperature in a stringent buffer corresponding to 20 mM Tris-Acetate-MES containing 200 mM potassium chloride and 0.5% Tween 20. They are carried out by fluorescence polarisation with the aid of peptides coupled at the N-terminal with the fluorophores Fluorescein or Cy5. For forming the peptide probes of the invention, the peptides can be coupled to any kind of fluorophore.

The data set “X-ray crystal structure” concerns the molecule itself. The experiment in a line: X-ray crystal structure.

No end group written: not given here.

Usually Kd stands for the constant that tells how readily two partners part at equilibrium. Lower therefore signals a tighter complex.

For “human NEMO mutant A323P, FLAG-tagged (from UniProt Q9Y6K9 1-419)”, the inhibition of TNFα-dependent activation of the NF-κB pathway (Igκ-luciferase reporter in NEMO-deficient mouse embryo fibroblasts) in data set [1] amounted to 95%.

For “human NEMO mutant F312A, FLAG-tagged (from UniProt Q9Y6K9 1-419)”, the inhibition of TNFα-dependent activation of the NF-κB pathway (Igκ-luciferase reporter in NEMO-deficient mouse embryo fibroblasts) with K63 polyubiquitin chains was determined as 78%.

B1: human CC2-LZ domain of NEMO (Tax CC2-LZ, Met 215 to Glu 362) mutant F312A (other)
chain: MERQAASEEKRKLAQLQVAYHQLFQEYDNHIKSSVVGSERKRGMQLEDLKQQLQQAEEALVAKQEVIDKLKEEAEQHKIVMETVPVLKAQADIYKADAQAERQAREKLAEKKELLQEQLEQLQREYSKLKASCQESARIEDMRKRHVE
notes: also called CC2-LZ F312A; not shown: vector-derived tag of pET-28b (protein purified on Ni-NTA)
In the case of B1, the binding result in data set [2] is “binds”.

B2: peptide PH4 (peptide)
peptide: TVAQLKAQHDIYEAEHQAVEHELEKLEEELEYIKEELEQLQREFNKLSG
modifications: also: N-terminal Fluorescein or Cy5
notes: Peptide probe designed from the crystal structure of the CC2-LZ domain
In turn, B2 came in with a Kd in data set [3] of 170 nM.

B3: CC2-LZ domain of murine NEMO (aa 251-337), N-terminal histidine tag (other)
chain: MQLEDLRQQLQQAEEALVAKQELIDKLKEEAEQHKIVMETVPVLKAQADIYKADFQAERHAREKLVEKKEYLQEQLEQLQREFNKLK
notes: Expressed in E. coli BL21-gold (DE3); Forms a parallel coiled-coil dimer in the crystal; also called CC2-LZ protein; Nemo CC2LZ; not shown: N-terminal histidine tag from plasmid pET28
In the case of B3, the binding result in the data set “X-ray crystal structure” is reported as “binds”.

B4: peptide P8RD (peptide)
peptide: TVAQLKAQFDIHQAEHQAVKHELEKIEEDFEYIEEQLEQLQREFNKLKSG
modifications: also: N-terminal Fluorescein or Cy5
notes: as for B2
Take B4: in data set [3], binding was characterised by a dissociation constant (Kd) of 60 nM.

The record behind these values is patent publication US20110159598A1 (LES LABORATOIRES SERVIER, published 2011).
